The values that follow come from publication PMC5261807 (2017).

Non-standard residues stand in square brackets, D forms with d. No end group written: not given here. Arg(Me2a) = CN(C)C(=N)NCCC[C@H](N)C(=O)O; Lys(Me3) = C[N+](C)(C)CCCC[C@H](N)C(=O)O; Arg(Me2s) = CN=C(NC)NCCC[C@H](N)C(=O)O; pT = C[C@@H](OP(=O)(O)O)[C@H](N)C(=O)O; Lys(Me2) = CN(C)CCCC[C@H](N)C(=O)O; pS = N[C@@H](COP(=O)(O)O)C(=O)O; Lys(Me) = CNCCCC[C@H](N)C(=O)O

For assay [1], the target named is T1, Bdf1 bromodomain 2 (GST-tagged, WT) (Saccharomyces cerevisiae (strain ATCC …, UniProt P35817)).
T1 chain: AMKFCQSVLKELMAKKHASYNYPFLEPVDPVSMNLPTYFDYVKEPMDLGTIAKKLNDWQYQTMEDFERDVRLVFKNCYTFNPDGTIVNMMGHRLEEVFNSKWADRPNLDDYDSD
The experiment in a line: histone peptide array probed with recombinant GST-bromodomain, signal normalised to myc peptide control.

Assay [2] concerns the target T2, Bdf1 bromodomain 1 (GST-tagged, WT) (Saccharomyces cerevisiae (strain ATCC …, UniProt P35817)).
T2 chain: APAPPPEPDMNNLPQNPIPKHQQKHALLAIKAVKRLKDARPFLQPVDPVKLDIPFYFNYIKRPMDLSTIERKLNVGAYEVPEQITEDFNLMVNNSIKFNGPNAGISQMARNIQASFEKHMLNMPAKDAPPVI
The description is as above.

With PRKQLATKAA[Arg(Me2a)]K(Ac)SAPATGG, the results for the binding score in assay [1] and in assay [2] were 0.0393 and 0, respectively.
In the case of ARTKQTARKSTGGKAPRKQ (A R T K Q T A R Kme3 pS T G G K A P R K Q), the binding score in assay [1] and in assay [2] was 0 in each case.
Turning to ARTKQTARKSTGGKAPRKQ (A Rme2s T Kac Q T A R Kme3 S T G G K A P R K Q), the binding score in assay [1] came to 0; in assay [2], 0.00412.
Turning to ARTKQTARKSTGGKAPRKQ (A Rme2s T Kme3 Q T A Rme2s K S T G G K A P R K Q), the binding score came to 0 in assay [1] and 0.00861 in assay [2].
The like results for ARTK(Ac)QTA[Arg(Me2s)][Lys(Me)]STGGKAPRKQ were, in that order, 0.00148 and 0.0242.
On to A[Arg(Me2a)]T[Lys(Me)]QTA[Arg(Me2s)][Lys(Me2)]STGGKAPRKQ, for which the binding score in assay [1] is 0; in assay [2] it was 0.00448.
The like results for ARTKQTARKSTGGKAPRKQ (A Rme2a T Kme2 Q T A Rme2s Kme1 S T G G K A P R K Q) were, in that order, 0 and 0.0163.
The like results for ARTKQTARKSTGGKAPRKQ (A Rme2s pT Kme3 Q T A R K S T G G K A P R K Q) were, in that order, 0.00895 and 0.00538.
The like results for ARTKQTA[Arg(Me2a)]K(Ac)S[pT]GGKAPRKQ were, in that order, 0 and 0.0043.
Consider SGRGKGGKGLGKGGAKRHR (S G Rme2s G Kac G G Kac G L G Kac G G A K R H R), for which the binding score in assay [1] was determined as 0.605; in assay [2], 0.391.
As for ARTKQTARKSTGGKAPRKQ (A Rme2s T Kme2 Q T A Rme2a Kac S T G G K A P R K Q), the binding score is 0.0107 in assay [1] and 0.0108 in assay [2].
As for SGRGKGGKGLGKGGAKRHR (pS G Rme2a G Kac G G Kac G L G K G G A K R H R), the binding score in assay [1] was 0.206; in assay [2] it was 0.0927.
Regarding ARTKQTARKSTGGKAPRKQ (A R T K Q T A Rme2s Kme3 S pT G G K A P R K Q), the results for the binding score in assay [1] and in assay [2] were 0.00561 and 0, respectively.
The like results for ARTKQTARKSTGGKAPRKQ (A R T K Q T A Rme2s K S T G G K A P R K Q) were, in that order, 0 and 0.00305.
With ARTKQTARKSTGGKAPRKQ (A Rme2s T Kme1 Q T A Rme2a Kac S T G G K A P R K Q), the binding score was 0.00462 in assay [1] and 0.00628 in assay [2].
The like results for ARTKQTARKSTGGKAPRKQ (A R T Kac Q T A Rme2a Kme3 S T G G K A P R K Q) were, in that order, 0 and 0.0328.
In the case of ARTKQTARKSTGGKAPRKQ (A Rme2a T Kme3 Q T A Rme2a Kme2 S T G G K A P R K Q), the binding score in assay [1] and in assay [2] was 0 throughout.
In the case of ARTKQTARKSTGGKAPRKQ (A R T K Q T A R Kac pS T G G K A P R K Q), the binding score in assay [1] and in assay [2] was 0 throughout.
Turning to ARTKQTARKSTGGKAPRKQ (A Rme2s T Kme1 Q T A R Kme3 S T G G K A P R K Q), the results for the binding score in assay [1] and in assay [2] were 0.000295 and 0, respectively.
The like results for SGRGK(Ac)QGGK(Ac)ARAKAKSRSS were, in that order, 0.141 and 0.0332.
On to A[Arg(Me2s)]T[Lys(Me3)]QTA[Arg(Me2a)][Lys(Me)]STGGKAPRKQ, for which the binding score in assay [1] and in assay [2] was 0 each time.
For [pS]GRGKQGGKARAK(Ac)AKSRSS, the binding score is 0.0125 in assay [1] and 0.00484 in assay [2].
The like results for A[Arg(Me2a)]T[Lys(Me2)]QTARKSTGGKAPRKQ were, in that order, 0 and 0.00161.
The like results for A[Arg(Me2a)]TK(Ac)QTARK(Ac)STGGKAPRKQ were, in that order, 0.0627 and 0.0911.
The like results for PDPAKSAPAPKKGSK(Ac)KAVT were, in that order, 0 and 0.00825.
Regarding A[Arg(Me2a)][pT]K(Me)QTARKSTGGKAPRKQ, the binding score in assay [1] came to 0.00207; in assay [2], 0.00412.
The like results for ARTKQTARKSTGGKAPRKQ (A R T Kme1 Q T A Rme2a Kme1 S T G G K A P R K Q) were, in that order, 0 and 0.0154.
PRKQLATKAA[Arg(Me2s)]K(Ac)SAPATGG: the binding score in assay [1] was 0.081; in assay [2], 0.00843.
For the molecule A[Arg(Me2a)]T[Lys(Me2)]QTA[Arg(Me2a)][Lys(Me2)]STGGKAPRKQ, the values for the binding score in assay [1] and in assay [2] were 0 and 0.00126, respectively.
The like results for ARTKQTARKSTGGKAPRKQ (A R T Kme1 Q T A Rme2a Kme2 S T G G K A P R K Q) were, in that order, 0.00738 and 0.00699.
As for ART[Lys(Me2)]QTA[Arg(Me2a)][Lys(Me)]STGGKAPRKQ, the binding score in assay [1] turned out to be 0; in assay [2] it was 0.000717.
The like results for ARTKQTARKSTGGKAPRKQ (A Rme2a T Kme1 Q T A Rme2a Kme1 S T G G K A P R K Q) were, in that order, 0 and 0.
On to PDPAKSAPAPKKG[pS]K(Ac)KAVT, for which the binding score in assay [1] worked out at 0.142; in assay [2], 0.0142.
The like results for ARTKQTARKSTGGKAPRKQ (A Rme2a T Kac Q T A R Kme2 S T G G K A P R K Q) were, in that order, 0.00915 and 0.0255.
For ARTKQTARKSTGGKAPRKQ (A Rme2a T Kme3 Q T A R Kac S T G G K A P R K Q), the binding score in assay [1] was 0.00758; in assay [2], 0.00628.
Take ARTKQTARKSTGGKAPRKQ (A Rme2a T Kme1 Q T A Rme2a K S T G G K A P R K Q): the binding score is 0.00443 in assay [1] and 0.00341 in assay [2].
For the molecule PDPAK(Ac)SAPAPKKGSKKAVT, the binding score in assay [1] is 0; in assay [2], 0.00502.
The like results for ARTKQTARKSTGGKAPRKQ (A Rme2s T Kac Q T A Rme2s K S T G G K A P R K Q) were, in that order, 0.00876 and 0.
On to ARTKQTARKSTGGKAPRKQ (A R T Kme2 Q T A Rme2a Kme3 S T G G K A P R K Q), for which the binding score in assay [1] and in assay [2] was 0 in each case.
For the molecule ARTKQTARKSTGGKAPRKQ (A R T Kme3 Q T A Rme2a Kme3 S T G G K A P R K Q), the binding score in assay [1] turned out to be 0; in assay [2] it was 0.00538.
Take ARTKQTARKSTGGKAPRKQ (A R T Kme1 Q T A Rme2s Kme3 S T G G K A P R K Q): the binding score in assay [1] and in assay [2] was 0 in each case.
Take PRKQLATKAA[Arg(Me2s)][Lys(Me3)]SAPATGG: the figures for the binding score in assay [1] and in assay [2] were 0 and 5.8e-17, respectively.
The like results for A[Arg(Me2a)]T[Lys(Me2)]QTA[Arg(Me2s)][Lys(Me3)]STGGKAPRKQ were, in that order, 0 and 0.0167.
The like results for PRKQLATKAARK(Ac)[pS]APATGG were, in that order, 0 and 0.
With ARTKQTARKSTGGKAPRKQ (A R T K Q T A R Kme2 S T G G K A P R K Q), the results for the binding score in assay [1] and in assay [2] were 0.00679 and 0.00269, respectively.
